Kd data for one molecule are collected here from US20220332804A1 (CSL INNOVATION, published 2022).

Common to all, as to test: SPR, mAb captured, C2 mutant analyte;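 further: Anti-C2 mAbs captured on goat anti-human IgG Biacore CM5 chips, alanine or serine C2 surface mutants flowed over at 37 °C, double-referenced sensorgrams fitted to a 1:1 binding model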
Test [1] addresses T1, human C2 G427A (human, UniProt P06681 21-752).
T1 sequence: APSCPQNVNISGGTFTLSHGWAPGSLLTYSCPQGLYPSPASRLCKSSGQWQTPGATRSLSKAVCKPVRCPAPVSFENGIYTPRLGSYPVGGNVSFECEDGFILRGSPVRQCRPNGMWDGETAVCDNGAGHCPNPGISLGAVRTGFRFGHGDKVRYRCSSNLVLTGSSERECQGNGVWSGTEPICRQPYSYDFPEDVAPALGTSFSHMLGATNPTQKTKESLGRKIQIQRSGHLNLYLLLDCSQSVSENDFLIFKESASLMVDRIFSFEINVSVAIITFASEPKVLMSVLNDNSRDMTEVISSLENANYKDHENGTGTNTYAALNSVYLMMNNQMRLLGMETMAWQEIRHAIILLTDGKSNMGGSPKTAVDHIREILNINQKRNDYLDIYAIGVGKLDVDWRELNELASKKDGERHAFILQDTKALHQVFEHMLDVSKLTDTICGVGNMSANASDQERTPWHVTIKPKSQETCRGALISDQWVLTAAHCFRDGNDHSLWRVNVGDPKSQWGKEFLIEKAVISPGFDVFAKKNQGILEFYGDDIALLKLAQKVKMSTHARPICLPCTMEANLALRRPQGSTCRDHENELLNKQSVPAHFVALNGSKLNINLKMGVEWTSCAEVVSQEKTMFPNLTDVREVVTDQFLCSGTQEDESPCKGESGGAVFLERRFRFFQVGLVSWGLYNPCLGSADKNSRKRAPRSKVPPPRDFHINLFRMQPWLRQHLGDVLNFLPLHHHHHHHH

Test [2] concerns the target T2, human C2 L279A (human, UniProt P06681 21-752).
T2 sequence: T1 sequence with L259A, A407G

Test [3] concerns the target T3, human C2 H451A (human, UniProt P06681 21-752).
T3 sequence: T1 sequence with A407G, H431A

Test [4] has as its target T4, human C2 F437A (human, UniProt P06681 21-752).
T4 sequence: T1 sequence with A407G, F417A

Numbering of substitutions follows the chain as printed.

B1: RF16-214 (antibody, V domains shown)
VH: EVQLLESGGGLVQPGGSLRLSCAASGFTFSWYQMMWVRQAPGKGLEWVSRIYPSGGGTAYADSVKGRFTISRDNSKNTLYLQMNSLRAEDTAVYYCARDAGYGDNWGQGTLVTVSS
VL: QSALTQPPSVSVSPGQTASITCSGDKLGEKYASWYQQKAGQSPVMVIYQDRKRPSGIPERFSGSNSGNTATLTISGTQAMDEADYYCQAWDTRAVVFGGGTKLTVLG
For orientation: Kd means the constant that tells how readily two partners part at equilibrium. On to B1, for which the Kd in test [1] was 8.8 nM; in test [2], 240 nM; in test [3], 138 nM; in test [4] it was 381 nM.
